# Assay results: IntAct's records for PubMed 26829474
# B1: Aurora kinase B (Homo sapiens), Q96GD4 (parent)
# chain: MAQKENSYPWPYGRQTAPSGLSTLPQRVLRKEPVTPSALVLMSRSNVQPTAAPGQKVMENSSGTPDILTRHFTIDDFEIGRPLGKGKFGNVYLAREKKSHFIVALKVLFKSQIEKEGVEHQLRREIEIQAHLHHPNILRLYNYFYDRRRIYLILEYAPRGELYKELQKSCTFDEQRTATIMEELADALMYCHGKKVIHRDIKPENLLLGLKGELKIADFGWSVHAPSLRRKTMCGTLDYLPPEMIEGRMHNEKVDLWCIGVLCYELLVGNPPFESASHNETYRRIVKVDLKFPASVPMGAQDLISKLLRHNPSERLPLAQVSAHPWVRANSRRVLPPSALQSVA
# Variants of: B1
# Settings: with 2aaa_human PPP2R1A
row,Variant,effect of a mutation on the interaction
1,MAQKENSYPWPYGRQTAPSGLSTLPQRVLRKEPVTPSALVLMSRSNVQPTAAPGQKVMENSSGTPDILTRHFTIDDFEIGRPLGKGKFGNVYLAREKKSHFIVALKVLFKSQIEKEGVEHQLRREIEIQAHLHHPNILRLYNYFYDRRRIYLILEYAPRGELYKELQKSCTFDEQRTATIMEELADALMYCHGKKVIHRDIKPENLLLGLKGELQIADFGWSVHAPSLRRKTMCGTLDYLPPEMIEGRMHNEKVDLWCIGVLCYELLVGNPPFESASHNETYRRIVKVDLKFPASVPMGAQDLISKLLRHNPSERLPLAQVSAHPWVRANSRRVLPPSALQSVA [K215Q],decreasing interaction strength
